The results in this text go back to the Immune Epitope Database (IEDB).

Assay [1] has as its target HLA-B*08:01. Put plainly: IEDB peptide-MHC binding, purified MHC/competitive/radioactivity; filed as Kd, often an IC50 or EC50 that approximates it; ≥ and ≤ were set here for values at or beyond the usual limits of such assays. As to conditions: source organism: Vaccinia virus WR.
The target in assay [2] is HLA-A*32:01. The description is as above.
Assay [3] deals with HLA-A*26:01. Described as above.
Assay [4] has as its target HLA-A*29:02. The description is as above.
Assay [5] concerns the target HLA-A*01:01. The description is as above.
Assay [6] addresses HLA-A*30:02. The assay is described as above.
The target in assay [7] is HLA-A*30:01. The assay is described as above.
Assay [8] has as its target HLA-A*24:02. The assay is described as above.
In assay [9] the target is HLA-A*23:01. Described as above.
Assay [10] concerns the target HLA-A*02:01. Put plainly: IEDB peptide-MHC binding, purified MHC/competitive/fluorescence; filed as Kd, often an IC50 or EC50 that approximates it; ≥ and ≤ were set here for values at or beyond the usual limits of such assays. As to conditions: source organism: Variola virus.
[11] abbreviates: source organism: Vaccinia virus WR.
The mark [12] stands for this setting: source organism: Mammarenavirus choriomeningitidis.
Setting [13] is: source organism: Mammarenavirus guanaritoense.
Where [14] appears, read: source organism: Vaccinia virus Copenhagen.
[15] abbreviates: source organism: SARS coronavirus Tor2.
Where [16] appears, read: source organism: Mammarenavirus lassaense.
Setting [17] is: source organism: Mammarenavirus brazilense.

By Kd is commonly meant the free concentration of one partner at which half of the binding sites on the other are occupied at equilibrium, for simple one-to-one binding. Consider MLMNHVANF, for which the values for the Kd in assay [1] and in [2] (setting [11]) were 3.33 nM and 8.28 nM, respectively.

For VTERIFREY, the Kd was not below 44900 nM in [3] (setting [12]); 8690 nM in assay [4] (setting [12]); 8.62 nM in assay [5] (setting [12]); 12900 nM in assay [2] (setting [12]); 876 nM in assay [6] (setting [12]); 4010 nM in assay [7] (setting [12]).

On to KVINLSELL, for which the Kd in assay [4] (setting [13]) stood at 11900 nM; in assay [8] (setting [13]) it was 17600 nM; in [9] (setting [13]), 426 nM.

With IRWYISLSF, the Kd in assay [2] (setting [14]) came to 1170 nM.

GSAKLQWFVE: the dissociation constant (Kd) in [2] (source organism: Dengue virus 3 Martinique/1243/1999) is not below 69900 nM.

For VYIGDPAQL, the Kd in assay [3] (setting [15]) is not below 77900 nM; in assay [4] (setting [15]) it was not below 22800 nM; in assay [5] (setting [15]) it was not below 78100 nM; in assay [8] (setting [15]), 107 nM; in [9] (setting [15]), 1180 nM; in assay [6] (setting [15]), not below 78900 nM.

Turning to QMYKTPTLKY, the Kd in assay [3] (setting [15]) was 3120 nM; in assay [4] (setting [15]), 6.81 nM; in assay [5] (setting [15]), 8920 nM; in [8] (setting [15]) it was not below 70300 nM; in assay [9] (setting [15]) it was not below 70000 nM; in [6] (setting [15]), 55.2 nM.

With DHEFVDEFY, the Kd was 13900 nM in [3] (setting [15]); 1170 nM in [4] (setting [15]); 262 nM in assay [5] (setting [15]); not below 77600 nM in assay [8] (setting [15]); not below 66200 nM in assay [9] (setting [15]); not below 22500 nM in assay [6] (setting [15]).

In the case of SMSEIINNI, in assay [2] (setting [11]), the Kd worked out at 245 nM.

As to AQDFQSLTI, the Kd in assay [2] (setting [14]) came to 67.6 nM.

Regarding YEEFCNAVY, the Kd is not below 77900 nM in [3] (setting [16]); 426 nM in assay [4] (setting [16]); 5370 nM in assay [5] (setting [16]); not below 77500 nM in assay [8] (setting [16]); 10100 nM in assay [9] (setting [16]); 762 nM in [6] (setting [16]).

In the case of WCEFVDFSV, the Kd was not below 77900 nM in assay [3] (setting [13]); 2470 nM in [4] (setting [13]); 341 nM in assay [5] (setting [13]); not below 77500 nM in assay [8] (setting [13]); not below 53300 nM in assay [9] (setting [13]); 7900 nM in [6] (setting [13]).

Regarding LYEQVVMDY, the Kd in assay [3] (setting [15]) was not below 22600 nM; in assay [4] (setting [15]), 12.2 nM; in [5] (setting [15]), 15100 nM; in assay [8] (setting [15]) it was not below 40500 nM; in assay [9] (setting [15]) it was not below 58200 nM; in [6] (setting [15]), 173 nM.

In the case of RMLLNRFTM, the equilibrium dissociation constant (Kd) in assay [2] (source organism: Dengue virus 1 Brazil/97-11/1997) was found to be 19.4 nM.

For the sequence MTNTMRNAI, the Kd in [2] (setting [11]) was determined as 106 nM.

As for KTIYLLSLF, in assay [2] (setting [11]), the Kd was 10.3 nM.

On to AMLNGLIYV, for which the Kd in [10] turned out to be 1.3 nM.

For the sequence PEDPVEVALY, the Kd in [3] (setting [16]) was not below 69700 nM; in assay [4] (setting [16]) it was not below 43400 nM; in assay [5] (setting [16]), not below 41000 nM; in [8] (setting [16]), not below 70300 nM; in assay [9] (setting [16]), not below 70000 nM; in [6] (setting [16]) it was 1430 nM.

Turning to EYADVFHLY, the Kd in [3] (setting [15]) is 27.7 nM; in assay [4] (setting [15]), 48.8 nM; in [5] (setting [15]), not below 26200 nM; in [8] (setting [15]) it was 784 nM; in assay [9] (setting [15]) it was 176 nM; in assay [6] (setting [15]) it was 10.8 nM.

Turning to TSQKSIVAY, the Kd is 8250 nM in assay [3] (setting [15]); 2080 nM in assay [4] (setting [15]); 1180 nM in assay [5] (setting [15]); not below 77600 nM in assay [8] (setting [15]); not below 77800 nM in [9] (setting [15]); 25.4 nM in assay [6] (setting [15]).

For ELLNTPYCNY, the Kd was 275 nM in [3] (setting [17]); 837 nM in assay [4] (setting [17]); 12300 nM in assay [5] (setting [17]); not below 39900 nM in [2] (setting [17]); 206 nM in assay [6] (setting [17]); not below 70400 nM in assay [7] (setting [17]).

As for DTVWEVQGY, the Kd is 1.64 nM in assay [3] (setting [15]); 4250 nM in [4] (setting [15]); 8020 nM in [5] (setting [15]); not below 77600 nM in assay [8] (setting [15]); not below 77800 nM in assay [9] (setting [15]); 1320 nM in assay [6] (setting [15]).
